Test results from patent US20210246209A1 (SHANGHAI JUNSHI BIOSCIENCES, published 2021).

Tests used:
[1] = biological target: T1, human BTLA expressed on cells (human, UniProt Q7Z6A9 31-289); assay: cell-based or functional assay
[2] = biological target: T1, human BTLA expressed on cells; assay: FACS on 293F cells expressing hBTLA
Procedure: The humanized anti-BTLA antibodies were determined for their binding ability to hBTLA expressed on cells using cell-based flow cytometry (FACS). […] Then the cells were mixed with 50 μL of antibody diluent at different concentrations (initial concentration: 10 μg/mL, 3-fold titration), and incubated at room temperature for 30 minutes. After being washed with an FACS buffer twice, the cells were added with 100 μL of goat anti-human IgG-PE antibody, incubated for 30 minutes away from light, and assayed by FACS after two washes with an FACS buffer. The washed cells were resuspended in 4° C. buffer containing propidium iodide (PI) and 0.02% sodium azide that prevents receptor internalization and analyzed by flow cytometry. Viable cells were gated on the basis of PI positive cells being excluded from the FSC/SSC gate and their geometric mean fluorescence intensity was measured. The data were analyzed using a sigmoidal dose-response model within Prism™ software.
The humanized antibodies hu17, hu18, and hu19 can effectively bind to hBTLA on 293 cells.

[3] = biological target: T2, hBTLA (human BTLA protein coated on plates or coupled to a chip) (human, UniProt Q7Z6A9 31-157, limits assumed); assay: ELISA, hBTLA coated at 0.5 µg/mL, anti-human IgG4-HRP detection
T2 sequence (looked up): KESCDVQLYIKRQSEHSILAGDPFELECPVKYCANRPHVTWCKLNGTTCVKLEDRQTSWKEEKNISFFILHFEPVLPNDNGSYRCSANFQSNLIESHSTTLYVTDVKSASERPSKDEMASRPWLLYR
Procedure: The binding specificity of the humanized antibodies to hBTLA was determined by conventional ELISA method. A 96-well microplate was coated with 0.5 μg/mL hBTLA and incubated at 37° C. for 60 minutes. The solution in wells was then discarded, and the wells were washed 3 times with washing buffer, and blocked for 60 minutes with PBS containing 2% BSA. After being washed 3 times with washing buffer, the wells were added with gradiently-diluted antibodies, incubated at 37° C. for 60 minutes, and washed 3 times with washing buffer before adding a HRP-labeled mouse anti-human IgG4 secondary antibody diluted at 1:10000. The mixture was incubated at 37° C. for 1 hour, washed three times with washing buffer, and added with 100 μL of TMB substrate solution for color development at room temperature for 30 minutes, then the reaction was stopped with 100 μL of 2M hydrochloric acid solution and the absorbance was read at 450 nm.
The humanized antibodies hu17, hu18, and hu19 can specifically bind to hBTLA.

[4] = biological target: T3, recombinant protein of human BTLA extracellular domain (hBTLA-ECD-FC) (human, UniProt Q7Z6A9 31-157, biotin-labeled in the FACS blocking assays (site not stated)); assay: FACS, blocking of biotin-labeled hBTLA binding to hHVEM-293F cells
T3 construct: extracellular domain; also called BTLA-Fc; biotin-labeled hBTLA; not shown: Fc of the self-constructed HX1-FC expression plasmid
T3 sequence (looked up): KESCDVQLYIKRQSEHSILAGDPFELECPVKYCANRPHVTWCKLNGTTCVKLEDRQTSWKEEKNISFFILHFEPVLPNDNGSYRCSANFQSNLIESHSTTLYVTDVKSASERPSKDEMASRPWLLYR
Procedure: Then the cells were mixed with previously biotin-labeled hBTLA (1 μg/mL) protein, incubated at 4° C. for 15 minutes, followed by mixing with 50 μL of humanized antibody diluent (initial concentration: 5 μg/mL, 3-fold titration) at different concentrations, and incubating at room temperature for 30 minutes. After being washed with an FACS buffer twice, the cells were added with 100 μL of goat anti-human IgG-PE antibody, incubated for 30 minutes away from light, and assayed by FACS after two washes with an FACS buffer. The washed cells were resuspended in 4° C. buffer containing propidium iodide (PI) and 0.02% sodium azide that prevents receptor internalization and analyzed by flow cytometry. Viable cells were gated on the basis of PI positive cells being excluded from the FSC/SSC gate and their geometric mean fluorescence intensity was measured. The data were analyzed using a sigmoidal dose-response model within Prism™ software.
The […] antibodies hu17, hu18, and hu19 can effectively block the binding of human BTLA to HVEM on the cell surface.

[5] = biological target: T3, recombinant protein of human BTLA …; assay: SPR, Biacore T200, BTLA-Fc amine-coupled to chip, antibody as analyte, 1:1 fit
Procedure: The assay was carried out using a Biacore T200 instrument (GE Healthcare). Series S CMS chip was loaded on the instrument and the system buffer used was HBS-EP+(10 mM HEPES, pH 7.4, 150 mM NaCl, 3 mM EDTA, 0.05% surfactant P20). The BTLA-Fc antigens were coupled in a chip detection channel: injecting a mixed solution of 400 mM EDC and 100 mM NHS at 10 μL/min for 420 s to activate the surface of the chip, diluting the BTLA-Fc antigens in a 10 mM sodium acetate/acetic acid (pH 5.5) buffer to a final concentration of 20 μg/mL and injecting at 10 μL/min for coupling, and injecting a 1M ethanolamine-hydrochloric acid solution (pH 8.5) at 10 μL/min for 420 s for blocking.
Antibodies were diluted in a 2-fold gradient with Biacore system buffer for a total of 6 concentration points. Concentration gradients were 24 nM, 12 nM, 6 nM, 3 nM, 1.5 nM and 0.75 nM, with 24 nM being a replicate. Data were analyzed using Biacore T200 Evaluation Software (version no. 3.0, GE Healthcare). Data were fitted using a model of 1:1 Binding. The kinetic constants of the binding of the antibodies to the antigens, namely, the association rate constant ka (1/Ms), dissociation rate constant kd (1/s) and the affinity constant kd (M), were obtained by fitting, and the results are shown in Table 8.

[6] = biological target: T4, murine BTLA (murine, UniProt Q7TSA3 30-183, limits assumed); assay: sheet shows OD:450nm against Log:ng/mL (ELISA-type readout); the text describes a Fortebio/biosensor assay with BTLA coupled to a chip
T4 sequence (looked up): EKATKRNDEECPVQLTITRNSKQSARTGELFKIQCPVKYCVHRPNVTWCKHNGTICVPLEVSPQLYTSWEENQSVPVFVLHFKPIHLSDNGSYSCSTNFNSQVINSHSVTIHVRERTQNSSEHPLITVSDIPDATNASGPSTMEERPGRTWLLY

B1: humanized antibody hu17 (antibody, V domains shown)
VH: QVQLVQSGAEVKKPGASVKLSCKASGYNFKHTYAHWVRQAPGQGLEWIGRIDPANGNTKYDPKFQGRATMTADTASNTAYLELSSLRSEDTAVYYCVADHYGSSLLDYWGQGTLVTVSS
VL: DIVMTQTPLSLSVTPGQPASISCKSSQSLLDSDGKTYLNWFQQRPGQSPRRLIYLVSKLDSGVPDRFSGSGSGTDFTLKISRVEAEDVGVYYCWQGTYFPYTFGQGTKLEIK
notes: also called hull [sic]; humanized antibody 17
EC50 (luciferase reporter, T cell activation) [1]: 0.257 µg/mL
EC50 [2]: 0.0967 µg/mL
EC50 [3]: 0.0063 µg/mL
IC50 [4]: 0.143 µg/mL
Kd [5]: 0.186 nM
koff [5]: 0.000116 s⁻¹
kon [5]: 624000 M⁻¹ s⁻¹
binding result [6]: no binding (tested: 1000 ng/mL)
